Laboratory results: US20260060994A1, “GLYCOSYLATED COMPOSITIONS AND METHODS OF USE” (Cy Biopharma AG, priority 2023, published 2026)

Columns and labels:
Format in all cases: biochemical
[1] = Glycosylation of 4-OH-DMT by GLY enzymes (UDP-glucose), LC-UV/MS; conditions: conditions of Examples 1 and 2 repeated for 4-HO-DMT; estimate from UV peak areas
Description: (§1) The assay conditions were: • 100 mM Tris-HCl, pH 7.4 • 5 mM MgCl2 • 1 mM KCl • 1.25 mM UDP-glucose • 0.5 mM 4-OH-MET • 5% (v/v) DMSO • 0.1 U/uL Fast AP phosphatase • 25% (v/v) GLY enzyme
(§2) Incubation was 24 house at 30° C. Reactions were terminated adding 3 volumes of 75% (v/v) ethanol.
(§3) LC separation was performed using an Agligen 1290 Infinity II UHPLC equipped with a Phenomenex Kinetex XB-C18 column (1.7 um, 100 angstroms, 100×2.1 mm) and 4-HO-MET was detected by absorbance at 210 nm and 268 nm with an Agilent 1260 Infinity II DAD.
(§4) 0.1% Formic acid in water (A) and 0.1% Formic acid in acetonitrile (B) were used as the mobile phases for the elution gradient, with a flow rate of 0.4 ml/min. Retention time for 4-HO-MET using this type of instrument under these condition was 2.6 min. The system was coupled to an Ultivo Triple Quadrupole MS. To verify the presence of possible glycoside products, as SIM (Selected Ion Monitoring) method was used on the MS to analyse for the m/z 381 (theoretical mass to chart ratio of 4-HO-MET-glucoside) and m/z 219 (theoretical mass to charge ratio of 4-HO-MET).
(§5) The enzymes giving the additional peak putatively corresponding to the 4-HO-MET-β-D-glucoside are listed below. […] A correct quantification of the product is not possible without a standard for the specific molecule. However, based on the assumption that the ratio area-to-concentration in the UV chromatograms will be similar to 4-HO-MET, estimates of the relative abundance for the additional peak are also given, expressed as percentage of converted 4-HO-MET. GLY enzymes hits are ranked according to their estimated conversion efficiency.
(§6) The experiments described in Examples 1 and 2 above were repeated for 4-OH-MiPT, 4-HO-DMT and 5-HO-DMT
Below is the corresponding data for 4-OH-DMT and 5-HO-DMT.

[2] = Glycosylation of 4-HO-MET by GLY enzymes (UDP-glucose), LC-UV/MS; conditions: 0.5 mM 4-OH-MET, 1.25 mM UDP-glucose, 25% (v/v) GLY enzyme, 24 h at 30° C.; estimate from UV peak areas
Description: 4-HO-MET was dissolved in 100% (v/v) DMSO to a concentration of 10 mM. The solution was stored at −20° C. prior to use.
FastAP phosphatase (1 U/uL) from ThermoFisher Scientific (catalog no. EF0651).
GLY enzyme suspensions contain 10 mM Tris-HCl at pH7.4, 250 mM imidazole and 50% (v/v) glycerol.
as §1, §2, §3, §4
As standard, 4-HO-MET solutions at a concentrations of 500, 250, 125, 62.5, and 31.25 uM were prepared from the 10 mM stock and used for caliboration.
A representative example of the chromatograms obtained with a wavelength of 268 nm for the standard solutions resuspended in the reaction buffer, and the corresponding MS-SIM signal, is shown in FIG. 16. The peak corresponding to 4-HO-MET is indicated.
When analyzing the GLY reactions, 30 of them gave an additional peak with retention time 2.2 min (i.e. in the expected region for a 4-HO-MET glucoside) and molecular mass compatible with the expected glucoside product, together with a corresponding decrease in substrate concentration, compared to the no-enzyme controls.
The method was repeated using various GLY enzymes to produce 4-HO-MET glucosides.
as §5

[3] = Glycosylation of 4-OH-EPT by GLY enzymes (UDP-glucose), LC-UV/MS; conditions: conditions of Examples 1 and 2 repeated for 4-OH-EPT; estimate from UV peak areas
Description: as §1, §2, §3, §4, §5
The experiments described in Examples 1 and 2 above were repeated for 4-OH-EPT.
Below is the corresponding data for 4-OH-EPT.

[4] = Glycosylation of 4-OH-MiPT by GLY enzymes (UDP-glucose), LC-UV/MS; conditions: conditions of Examples 1 and 2 repeated for 4-OH-MiPT; estimate from UV peak areas
Description: as §1, §2, §3, §4, §5, §6
Below is the corresponding data for 4-OH-MiPT.

Row | Molecule | 4-OH-DMT GLY % [1] [%] | 4-OH-MET GLY % (percentage of converted 4-HO-MET) [2] [%] | 4-OH-EPT GLY % (percentage of converted 4-OH-EPT) [3] [%] | 4-OH-MiPT GLY % (percentage of converted 4-OH-MiPT) [4] [%]
1 | GLY73: glycosyltransferase (UGT), SEQ ID NO: 4 (protein) MEDAIVLYPSPGRGHLISMVELGKLILKNHPSFSITILILSEPNTNANSTAPNYVASSTTEYITTVNSTTPSITFHHLPPISEVPPSTSSFVELSYLIPRFNNQNLHQILKTISQTSKLKAFIIDFFCDAAFEVATNLDIPTYYFFTSGACYLAALLYRPTLHKKVDKSLKDLGNTLLDIPGLPPIQASDLPEPWKDRTSKEYQYSLNVAAHMAKSNGLLVNTFDLLETKAIKAISGGLCVPDRTTPPIFCIGPLISDSNQDVEDHECLNWLNSQPSRSVVFLCFGSLGLFSAKQLKEIAVGLENSGQRFLWVLRNPPSDNDKDPNLDELLPKGFLERTKEKGFVVKQWAPQVAVLRHDSVGGFVTHCGWNSVLEAVWCRVPMVGWPLYAEQRLNSVVLVEEIKLASGLNESEDGLVSAAELEKRVKELMDSEVGTEVRERVSGLRDEAVTAVKEGGSSHVALAKLAELWRQN | 14.0 | 7.4 |  | 
2 | GLY169: glycosyltransferase (UGT), SEQ ID NO: 26 (protein) MKKPELIFIPAPGVGHVISALEFAARLLGHDPRISITVLAIKAPFSSHLDAYTKSLVASQPRIALIDLPPVDPPPPELLRSVEHYVTVYIESYIPHVQRAVGEIQSSRSDSGSDRSVAGFVLDFFCTSMIDVADGFSLPSYIYLTSNAHFLDLMFHLPARHDQIGREARLSDPDLPLPNFANPVPVSVLPSAVLDGEAGGYAAYVKLARRFRDVRGIMVNTFMELERSALGSFSGGSWDGPAVYAVGPVIDPKGVPDPSLDRAHWEKIREWLDEQPPSSVVFLCFGSLGSFDADQVKEIASGIERSGHKFLWSLRPESSQSQLPVGFLERMRGRGIICGWTPQVEVLGHAAIGGFVSHCGWNSILESLWYGVPIVTWPIYAEQQLNAFTMVKELGLAVELRLDYKGQGIGGHLVPAEEIEKAVGRLMGDDAAETRKKVREMREAARNAVKEGGSSYDSIGRLIQDFINSIE | 25.0 | 52.3 | 33 | 71.5
3 | GLY146: glycosyltransferase (UGT), SEQ ID NO: 18 (protein) MKKSELVFIPAPGIGHLVSALEFAKRLIDHDDRHSITVLSMKFPFTPFADEFTKSLVASHHGIQVIDLPPVDPPPPELLNSPENFVCAFIESLIPHVRNTLTDMLSSSSRVSGLVLDFFCLSLIDVGNELGVPSYMFLTSNSGFLGLMLHIPIRHNQKSAEFEESDAEVSLPGFWNPVPVSVLPGAVFDKDGGYSAYLKLAKRFRDTKGIIVNTFSELELDSVKSLSDGETPPVYMVGPVIDLKGQPNPSLDQAQREKIMHWLDDQPESSVVYLCFGSMGTFGAIQLREIATGLERSGHRFLWSMRVPQPAKGPDDILPEGFSERIGGRGLICGWAPQMEVLAHKAIKGFVSHCGWNSILESLWFGVPIATWPIYAEQQMNAFRMVKEFGLAVEMKLDYRLGDLVMADEIEIAVRRLMDDSDELRKKVKEMGEMARQAIIEGGSSYIAVGQLIEDILGSISCDN |  |  | 5.3 | 23.2
4 | GLY170: glycosyltransferase (UGT), SEQ ID NO: 28 (protein) MKKINLVVIPFAGVGHLVSTIEFIKRLLSRDDRFSVTILVIKSPLEHSLDPNTSPPSLPSSHPHIQFINVRSLNPPPIEVFLKSPEKYFTLYIESYKLKVKEIIVDHVLPNSAPLGGLFLDMFSTSMVDVAQELGVPSYVFLTSGAGFLGFVLYLQTRHDRGGAEFELSDIESYIPSYVNPVPSRVLPSLAFNREGGYVSFVNVARNMKKTKGIIVNTVFELESHAISSLLMDGATPPVYAVGPLIDHKGESHFRTDQAKRDKIIKWLDDQPTKSVIFLCFGSFGSFGVPQLREIAIGLEQSGARFLWSIRQAKSIFEMPIECEKPEEFLPQGFLDRTKELGMICGWTPQIEVLAHRAIGGFVSHCGWNSILESLWHGVPIVTWPLYAEQQINAFQIVKDLGLGVELRLDYRRDGGDVDVVMRDEIEKAVRYVMDGDSEVRQRVQEASEKCRKAVVEGGSSFSSIGSLIEAILANIS | 15.7 | 31.6 | 23.4 | 38.8
5 | GLY77: glycosyltransferase (UGT), SEQ ID NO: 8 (protein) MSTSELVFIPSPGAGHLPPTVELAKLLLHRDQRLSVTIIVMNLWLGPKHNTEARPCVPSLRFVDIPCDESTMALISPNTFISAFVEHHKPRVRDIVRGIIESDSVRLAGFVLDMFCMPMSDVANEFGVPSYNYFTSGAATLGLMFHLQWKRDHEGYDATELKNSDTELSVPSYVNPVPAKVLPEVVLDKEGGSKMFLDLAERIRESKGIIVNSCQAIERHALEYLSSNNNGIPPVFPVGPILNLENKKDDAKTDEIMRWLNEQPESSVVFLCFGSMGSFNEKQVKEIAVAIERSGHRFLWSLRRPTPKEKIEFPKEYENLEEVLPEGFLKRTSSIGKVIGWAPQMAVLSHPSVGGFVSHCGWNSTLESMWCGVPMAAWPLYAEQTLNAFLLVVELGLAAEIRMDYRTDTKAGYDGGMEVTVEEIEDGIRKLMSDGEIRNKVKDVKEKSRAAVVEGGSSYASIGKFIEHVSNVTI | 30.2 | 66.5 | 66.2 | 85
6 | GLY74: glycosyltransferase (UGT), SEQ ID NO: 6 (protein) MRNVELIFIPTPTVGHLVPFLEFARRLIEQDDRIRITILLMKLQGQSHLDTYVKSIASSQPFVRFIDVPELEEKPTLGSTQSVEAYVYDVIERNIPLVRNIVMDILTSLALDGVKVKGLVVDFFCLPMIDVAKDISLPFYVFLTTNSGFLAMMQYLADRHSRDTSVFVRNSEEMLSIPGFVNPVPANVLPSALFVEDGYDAYVKLAILFTKANGILVNSSFDIEPYSVNHFLQEQNYPSVYAVGPIFDLKAQPHPEQDLTRRDELMKWLDDQPEASVVFLCFGSMARLRGSLVKEIAHGLELCQYRFLWSLRKEEVTKDDLPEGFLDRVDGRGMICGWSPQVEILAHKAVGGFVSHCGWNSIVESLWFGVPIVTWPMYAEQQLNAFLMVKELKLAVELKLDYRVHSDEIVNANEIETAIRYVMDTDNNVVRKRVMDISQMIQRATKNGGSSFAAIEKFIYDVIGIKP | 22.4 | 36 | 7 | 19.3
7 | GLY163: glycosyltransferase (UGT), SEQ ID NO: 22 (protein) MTGELIFIPMPSLSHIASTMEIAKLLVHRDDRLSITVLLISSQYTTSITTYINSLIASSDYDRIRFIHLPELDSEEEPKRPFMSVIDDNKPIVKEAVTNLALSFDPSHRLAGFVIDMFCVGMIEVADELGLPSYPFFTSSTSFLALQFHVQTLADEEEVDITEFKNSDVMLPIPGLVNPLPAKTILPSAMLNKDWLPYVLNGARGFRKTKGIMVNSFAEIESNAVTSLSNSTVPPVYTVGPIINFKGDGQDSDTCTAHKYSNIMTWLDDQPPSSVLFLCFGSLGSFDEEQVKEIARALEGSGHRFLWSLRRPPPKDKTMSFPTEYENFEEVLPEGFVDRTVGMGKVMGWAPQVAVLAHPSIGGFVTHCGWNSILESVWFGVPMAAWPLYAEQQFNAFHMVVELGLAVEIKMDYRKDYAILGLQEERVSAEVIEKGIRCLMEEDNDARKKVKEMSEISRKALMDGGSSHAVLGQFIEDVMNNISA | 10.6 | 40.5 | 46.3 | 61.6
